In patent US20160279215A1, “NOVEL PEPTIDES AND COMBINATION OF PEPTIDES FOR USE IN IMMUNOTHERAPY AGAINST VARIOUS TUMORS” (immatics biotechnologies GmbH, priority 2015, published 2016):

target: T1, HLA-A*02:01 (human); assay: UV ligand-exchange ELISA (anti-b2m); ++ = exchange yield >=20%
T1 construct: MHC monomers captured on streptavidin plates; the UV-sensitive peptide is cleaved and exchanged with the test peptide; also called peptide-receptive MHC molecules; MHC class I
Description: (§1) Candidate peptides for T cell based therapies according to the present invention were further tested for their MHC binding capacity (affinity). The individual peptide-MHC complexes were produced by UV-ligand exchange, where a UV-sensitive peptide is cleaved upon UV-irradiation, and exchanged with the peptide of interest as analyzed. Only peptide candidates that can effectively bind and stabilize the peptide-receptive MHC molecules prevent dissociation of the MHC complexes. To determine the yield of the exchange reaction, an ELISA was performed based on the detection of the light chain (β2m) of stabilized MHC complexes. The assay was performed as generally described in Rodenko et al. (Rodenko et al., 2006).
(§2) 96 well MAXISorp plates (NUNC) were coated over night with 2 ug/ml streptavidin in PBS at room temperature, washed 4× and blocked for 1 h at 37° C. in 2% BSA containing blocking buffer. Refolded HLA-A*02:01/MLA-001 monomers served as standards, covering the range of 15-500 ng/ml. Peptide-MHC monomers of the UV-exchange reaction were diluted 100 fold in blocking buffer. Samples were incubated for 1 h at 37° C., washed four times, incubated with 2 ug/ml HRP conjugated anti-β2m for 1 h at 37° C., washed again and detected with TMB solution that is stopped with […]. Absorption was measured at 450 nm. Candidate peptides that show a high exchange yield (preferably higher than 50%, most preferred higher than 75%) are generally preferred for a generation and production of antibodies or fragments thereof, and/or T cell receptors or fragments thereof, as they show sufficient avidity to the MHC molecules and prevent dissociation of the MHC complexes.

Row | peptide exchange yield [%] | Binder
1 | 20 to 50 | TLLEGISRA (also called CABY-001)
2 | 20 to 50 | GIINKLVTV
3 | 20 to 50 | FLDGRPLTL
4 | 20 to 50 | LLFPSDVQTL
5 | 20 to 50 | DISKRIQSL
6 | 20 to 50 | NMADGQLHQV
7 | 20 to 50 | KLIYKDLVSV
8 | 20 to 50 | VVAAHLAGA
9 | 20 to 50 | ALLSSVAEA
10 | 20 to 50 | TLDSYLKAV (also called CYP4Z-001)
11 | 20 to 50 | SLYKSFLQL
12 | 20 to 50 | ILQDGQFLV (also called DCAF4L2-001)
13 | 20 to 50 | QIQGQVSEV
14 | 20 to 50 | AIIKEIQTV
15 | 20 to 50 | LLDAAHASI
16 | 20 to 50 | SILTNISEV
17 | 20 to 50 | FLFLKEVKV
18 | 20 to 50 | ALYVQAPTV
19 | 20 to 50 | ALLLRLFTI
20 | 20 to 50 | ILHGEVNKV
21 | 20 to 50 | SLIEESEEL
22 | 20 to 50 | KMASKVTQV
23 | 20 to 50 | NIDINNNEL

target: T1, HLA-A*02:01; assay: UV ligand-exchange ELISA (anti-b2m); +++ = exchange yield >=50
Description: as §1, §2

Row | peptide exchange yield [%] | Binder
24 | 50 to 75 | ALYGNVQQV
25 | 50 to 75 | KLFEKSTGL
26 | 50 to 75 | SLFSNIESV
27 | 50 to 75 | ALYPKEITL
28 | 50 to 75 | LLLPLELSLA
29 | 50 to 75 | FLIENLLAA
30 | 50 to 75 | QLMNLIRSV
31 | 50 to 75 | GLYPVTLVGV
32 | 50 to 75 | KLLPMVIQL
33 | 50 to 75 | SLAETIFIV (also called HTR3A-001)
34 | 50 to 75 | VLTGQVHEL
35 | 50 to 75 | ILGSFELQL
36 | 50 to 75 | FIANLPPELKA
37 | 50 to 75 | LLDPKTIFL (also called HAVCR1-001)
38 | 50 to 75 | ALLDGALQL
39 | 50 to 75 | KLIDEDEPLFL

Row | peptide exchange yield [%] | Binder
40 | 50 to 75 | HLLGEGAFAQV
41 | 50 to 75 | YLDEVAFML
42 | 50 to 75 | KLLSLLEEA
43 | 50 to 75 | ILAEEPIYIRV
44 | 50 to 75 | SLITGQDLLSV
45 | 50 to 75 | SLVENIHVL
46 | 50 to 75 | ALLQALMEL
47 | 50 to 75 | SLLEVNEASSV
48 | 50 to 75 | FVQEKIPEL
49 | 50 to 75 | YLFSQGLQGL
50 | 50 to 75 | FTAEFLEKV
51 | 50 to 75 | ALADGIKSFLL
52 | 50 to 75 | ALQSFEFRV
53 | 50 to 75 | QLIEKNWLL
54 | 50 to 75 | TLFGIQLTEA
